Several values for one entry are separate records, joined by “and”; a condition that tells them apart may be missing. Equal entries are not always repeated. One block for each substance: values may come before it.
Key:
[1] = biological target: PEX14 NTD (1-104) (human) (UniProt O75381); experiment: ITC; PEX14 (1-104) (20-60 uM, concentration corrected with the fit) in the cell, peptide or fragment in the syringe; 25 °C, 20 mM Tris pH 7.5, 50 mM NaCl; one-site binding model; single runs of triplicates and their averages
[2] = biological target: PEX14 NTD (1-104) (human) (UniProt O75381); experiment: ITC; PEX14 NTD (1-104) (20-60 µM) in the cell, titrated with PEX5 W peptides or W0 (0.4-0.6 mM), PEX13 FxxxF (0.46 mM) or PEX13 SH3-CTR (1 mM); 25 °C; 20 mM Tris pH 7.5, 50 mM NaCl; one-site binding model; PEX14 concentration corrected with the fit; triplicates
PEX13 SH3 domain (human) [3] = biological target: PEX13 SH3 domain (human) (UniProt Q92968); experiment: ITC; PEX13 SH3 at 35-48 µM titrated with PEX5 15-mer peptides or PEX5 1-76 (0.6-0.7 mM) or PEX13 350-403 (0.9-1 mM); 25 °C; 20 mM Tris pH 7.5, 50 mM NaCl; one-site model; triplicates
PEX13 SH3 domain (human) [4] = biological target: PEX13 SH3 domain (human) (UniProt Q92968); experiment: ITC; PEX13 SH3 (35-48 uM) in the cell, peptide or fragment in the syringe; 25 °C, 20 mM Tris pH 7.5, 50 mM NaCl; one-site binding model; single runs of triplicates and their averages
[5] = biological target: PEX14 NTD (1-104) (human) (UniProt O75381); experiment: ITC; PEX14 (1-104) at 20-60 µM titrated with PEX5 W peptides or W0 (0.4-0.6 mM), PEX13 FxxxF (0.46 mM) or PEX13 SH3-CTR (1 mM); 25 °C; 20 mM Tris pH 7.5, 50 mM NaCl; one-site model; PEX14 concentration corrected with the fit; triplicates

Sequence of PEX14 NTD (1-104) (human) (O75381 1-104): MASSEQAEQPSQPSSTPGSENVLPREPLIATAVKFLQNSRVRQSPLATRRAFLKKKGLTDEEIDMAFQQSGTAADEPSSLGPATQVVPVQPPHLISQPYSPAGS

stoichiometry N [1]: 1 sites | stoichiometry N [2]: 1
Substance: PEX5 W2 peptide

stoichiometry N [1]: 1 sites | stoichiometry N [2]: 1
Substance: PEX5 W3 peptide

stoichiometry N [1]: 1 sites | stoichiometry N [2]: 1
Substance: PEX5 W4 peptide

Kd (PEX13 SH3 domain (human) [3]): 6 µM
Substance: PEX13 FF/W4 (FxxxF core motif FESVF replaced with WYDEY), as titrated onto the SH3 domain (domain or fragment)

Kd (PEX13 SH3 domain (human) [4]): 6.48 µM and 6.11 µM and 6.59 µM | stoichiometry N (PEX13 SH3 domain (human) [4]): 1 sites
Substance: PEX13 FF/W4 (FxxxF fragment with the core motif FESVF replaced by WYDEY) (domain or fragment)

Kd [5]: 2.8 µM | stoichiometry N [5]: 1 | Kd (PEX13 SH3 domain (human) [3]): 27 µM
Substance: PEX13 FxxxF peptide (residues 350-403) (from UniProt Q92968 350-403) (domain or fragment)

Kd [5]: 5.4 µM | stoichiometry N [5]: 1
Substance: PEX13 SH3-CTR (residues 261-403) (from UniProt Q92968 261-403) (domain or fragment)

— article PMC11024197
